Assay results from patent US20170298146A1 (MODIQUEST B V, published 2017).
Non-standard residues stand in square brackets, D forms with d. No end group written: not given here. Cit = NC(=O)NCCC[C@H](N)C(=O)O

Columns and labels:
CFC-1 [1] = biological target: T1, CFC-1; test: peptide ELISA, 0.016 ug/well
T1 construct: Positive control for anti-citrulline reactivity; also called cfc1 XG
Procedure: (§1) Biotin and citrulline-containing peptides derived from histone 2A were immobilized on NEUTRAVIDIN®-coated 96-well ELISA plates (0.3 μg/well). CFC-1 and CFC-0 were coated at the same concentration and served as positive and negative controls respectively for specific anti-citrulline reactivity and as coating controls. Non-coated wells were used to test for aspecific binding of the antibodies. […] Detection of bound anti-citrulline antibodies was performed by incubating the wells with rabbit-anti-human-HRP (1:2000) for one hour at RT followed by incubation with TMB substrate. The resulting OD (y-axis) is a measure for antibody binding.
(§2) Ninety-six-well ELISA plates were coated with NEUTRAVIDIN® (0.1 μg/well) by overnight incubation at 4° C. Wells were washed five times with PBS-TWEEN®-20 (PBS-T) and blocked by a one-hour incubation with PBS-T+1% Bovine serum albumin (BSA) at room temperature (RT). After five more washes with PBS-T, wells were incubated for one hour at RT with histone-derived citrulline and biotin-containing peptides (0.3 μg/well). […] Wells were washed five times with PBS-T and incubated with rabbit-anti-human-HRP (1:2000) for one hour at RT followed by five washes with PBS-T and three wash steps with PBS. Wells were incubated for five minutes with TMB substrate before stopping the reaction with 2 M H₂SO₄. Optical density was measured by 450 nm and is a measure for the affinity of the antibodies used.

[2] = biological target: T2, Histone 2A citrulline-containing peptide 2 (human, also: biotin label); test: peptide ELISA, 0.016 ug/well
T2 peptide: AKAKS[Cit]SSRAGL
Procedure: as §1, §2

[3] = biological target: T3, Histone 2A citrulline-containing peptide 6 (human, also: biotin label); test: peptide ELISA, 0.016 ug/well
T3 peptide: VHRLL[Cit]KGNYSE
Procedure: as §1, §2

[4] = biological target: T4, Histone 2A citrulline-containing peptide 9 (human, also: biotin label); test: peptide ELISA, 0.016 ug/well
T4 peptide: DNKKT[Cit]IIPRHL
Procedure: as §1, §2

[5] = biological target: T5, Histone 2A citrulline-containing peptide 3 (human, also: biotin label); test: peptide ELISA, 0.016 ug/well
T5 peptide: KSRSS[Cit]AGLQFP
Procedure: as §1, §2

[6] = biological target: T6, Histone 2A citrulline-containing peptide 10 (human, also: biotin label); test: peptide ELISA, 0.016 ug/well
T6 peptide: TRIIP[Cit]HLQLAI
Procedure: as §1, §2

[7] = biological target: T7, Histone 2A citrulline-containing peptide 8 (human, also: biotin label); test: peptide ELISA, 0.016 ug/well
T7 peptide: AGNAA[Cit]DNKKTR
Procedure: as §1, §2

[8] = biological target: T8, Histone 2A citrulline-containing peptide 5 (human, also: biotin label); test: peptide ELISA, 0.016 ug/well
T8 peptide: VGRVH[Cit]LLRKGN
Procedure: as §1, §2

[9] = biological target: T9, Histone 2A citrulline-containing peptide 12 (human, also: biotin label); test: peptide ELISA, 0.016 ug/well
T9 peptide: NKLLG[Cit]VTIAQG
Procedure: as §1, §2

[10] = biological target: T10, Histone 2A citrulline-containing peptide 4 (human, also: biotin label); test: peptide ELISA, 0.016 ug/well
T10 peptide: QFPVG[Cit]VHRLLR
Procedure: as §1, §2

[11] = biological target: T11, Histone 2A citrulline-containing peptide 1 (human, also: biotin label); test: peptide ELISA, 0.016 ug/well
T11 construct: also called AAASGXGKQGGK
T11 peptide: AAASG[Cit]GKQGGK
Procedure: as §1, §2

[12] = biological target: T12, Histone 2A citrulline-containing peptide 7 (human, also: biotin label); test: peptide ELISA, 0.016 ug/well
T12 peptide: GNYSE[Cit]VGAGAP
Procedure: as §1, §2

[13] = biological target: T13, Histone 2A citrulline-containing peptide 11 (human, also: biotin label); test: peptide ELISA, 0.016 ug/well
T13 peptide: LQLAI[Cit]NDEELN
Procedure: as §1, §2

CFC-1 [14] = biological target: T1, CFC-1; test: ELISA, 0.4 ug/well
Procedure: (§3) CFC-1 and CFC-0 were coated at the same concentration and served as positive and negative controls, respectively, for specific anti-citrulline reactivity and as coating controls. Non-coated wells were used to test for aspecific binding of the antibodies. […] Detection of bound anti-citrulline antibodies was performed by incubating the wells with rabbit-anti-human-HRP (1:2000) for one hour at RT followed by incubation with TMB substrate. The resulting OD (y-axis) is a measure for antibody binding. H1=recombinant histone 1; H1/p2=huPAD2 recombinant histone 1; H1/p4=huPAD4 recombinant histone 1 and so forth (x-axis).

[15] = biological target: T14, huPAD4 deiminated human recombinant histone H3 (human); test: ELISA, 0.4 ug/well
T14 construct: also called H3/p4
Procedure: as §3

[16] = biological target: T15, huPAD2 deiminated human recombinant histone H2B (human); test: ELISA, 0.4 ug/well
T15 construct: also called H2B/p2
Procedure: as §3

CFC-1 [17] = biological target: T1, CFC-1; test: ELISA, 0.08 ug/well
Procedure: as §3

[18] = biological target: T16, huPAD4 deiminated human recombinant histone H2B (human); test: ELISA, 0.08 ug/well
T16 construct: also called H2B/p4
Procedure: as §3

[19] = biological target: T17, human recombinant histone H2B (human); test: ELISA, 0.08 ug/well
T17 construct: Non-deiminated
Procedure: as §3

[20] = biological target: T14, huPAD4 deiminated human recombinant …; test: ELISA, 0.08 ug/well
Procedure: as §3

[21] = biological target: human recombinant histone H4 (human, UniProt P62805 2-103); test: ELISA, 0.08 ug/well
Procedure: as §3

[22] = biological target: T18, huPAD2 deiminated human recombinant histone H2A (human); test: ELISA, 0.08 ug/well
T18 construct: also called H2A/p2
Procedure: as §3

[23] = biological target: T19, huPAD4 deiminated human recombinant histone H2A (human); test: ELISA, 0.08 ug/well
T19 construct: also called H2A/p4; huPAD4 deiminated histone 2A
Procedure: as §3

[24] = biological target: T20, human recombinant histone H2A (human); test: ELISA, 0.08 ug/well
T20 construct: Non-deiminated
Procedure: as §3

[25] = biological target: T21, huPAD2 deiminated human recombinant histone H3 (human); test: ELISA, 0.08 ug/well
T21 construct: also called H3/p2
Procedure: as §3

[26] = biological target: T15, huPAD2 deiminated human recombinant …; test: ELISA, 0.08 ug/well
Procedure: as §3

B1: RhmAb2.102 (antibody, human IgG1, lambda)
heavy: not shown
light: QSVLTQPPSMSAAPGQKVTISCSGSSSNIGNNYVSWYQQVPGTAPKLLIYDDNKRPSGIPGRFSGSKSATSATLGITGLQAGDEADYYCGSWDDNLSVVLFGGGTKLTVLGQPKAAPSVTLFPPSSEELQANKATLVCLISDFYPGAVTVAWKADSSPVKAGVETTTPSKQSNNKYAASSYLSLTPEQWKSHRSYSCQVTHEGSTVEKTVAPTECS
notes: Human IgG1 lambda; also called Rhm2.102
OD (CFC-1 [1]): 1.46 OD | OD [2]: 0.065 OD | OD [3]: 0.075 OD | OD [4]: 0.064 OD | OD [5]: 0.07 OD | OD [6]: 0.066 OD | OD [7]: 0.063 OD | OD [8]: 0.065 OD | OD [9]: 0.057 OD | OD [10]: 0.084 OD | OD [11]: 0.843 OD | OD [12]: 0.061 OD | OD [13]: 0.069 OD | OD (CFC-1 [14]): 3.12 OD | OD [15]: 0.166 OD | OD [16]: 0.06 OD | OD (CFC-1 [17]): 2.15 OD | OD [18]: 0.052 OD | OD [19]: 0.054 OD | OD [20]: 0.093 OD | OD [21]: 0.067 OD | OD [22]: 1.96 OD | OD [23]: 1.75 OD | OD [24]: 0.06 OD | OD [25]: 0.493 OD | OD [26]: 0.053 OD
